How the values were obtained:
hu CD20 = target: T1, hu CD20 (Homo sapiens, UniProt P11836); assay: CD20 binding ELISA
T1 sequence (P11836 1-297): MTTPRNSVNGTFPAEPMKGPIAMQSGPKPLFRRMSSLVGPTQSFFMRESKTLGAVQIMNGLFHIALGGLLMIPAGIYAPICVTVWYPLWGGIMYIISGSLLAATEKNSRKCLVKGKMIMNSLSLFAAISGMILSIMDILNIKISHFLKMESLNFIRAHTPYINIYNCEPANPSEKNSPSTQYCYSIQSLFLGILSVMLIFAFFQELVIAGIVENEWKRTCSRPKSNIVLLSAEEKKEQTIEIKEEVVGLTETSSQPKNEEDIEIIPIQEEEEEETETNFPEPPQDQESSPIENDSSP
Method: The interaction of the unmodified and of conjugated anti-CD20 antibodies with CD20 were measured by ELISA assay. […] Plates were washed four times with 100 μl of PBS-0.02% Tween20. and blocked with 25 μl of PBS-0.02% Tween20-1% BSA at 37° C. with shaking at 600 RPM, for 1 h. Plates were then washed four times with 100 μl of PBS-0.02% Tween20. […] Plates were then washed four times with 100 μl of PBS-0.02% Tween20. 25 ul of Streptavidin-Horseradish peroxidase (#RABHRP3, Merck, Buchs, Switzerland) diluted at 1:500 into PBS-0.02% Tween20-0.1% BSA were added to each well and incubated at room temperature for 30 min. Plates were then washed four times with 100 μl of PBS-0.02% Tween20. […] ELISA signal is then measured at 450 nm on an ENSPIRE® plate reader from Perkin Elmer (Schwerzenbach, Switzerland).

Human FcRn = target: T2, Human FcRn (Homo sapiens, UniProt P55899); assay: FcRn binding AlphaLISA; conditions: hu FcRN binding aLISA
T2 construct: purchased PerkinElmer AL3095C
Method: Human IgG Conjugated Acceptor Beads (2×) and Streptavidin (SA) Donor Beads were diluted to reach final concentrations of 5 μg/ml.
To wells in the assay plates, 10 ul of diluted antibodies, 10 ul of diluted FcRn, 20 ul of human IgG conjugated Acceptor beads, and SA-Donor beads were added.

hu FcγRI (CD64) = target: T3, hu FcγRI (CD64) (Homo sapiens, UniProt P12314); assay: Fc gamma receptor binding ELISA
T3 construct: purchased R&D Systems 1257-FC-050
Method: (§1) To analyze Fc Receptor gamma binding test molecules were diluted to 2.5 ug/ml in PBS and plates were coated overnight at 4° C. The next day the assay plates were washed four times with 100 ul of wash buffer: PBS+0.02% Tween 20 and blocked with PBS+1% BSA, for one hour at 37° C., with shaking at 600 RPM. The blocked plates were then washed four times with 100 ul wash buffer. Diluted FcRgamma (Reagents listed, below) was freshly diluted in wash buffer. Plates were then incubated with 25 ul of diluted Fc for two hours with shaking at 600 RPMs, then washed with 100 ul wash buffer, four times. The wells were then incubated with 25 ul of either 1:500 diluted streptavidin-Horseradish peroxidase (HRP) for detection of human FcgR or 1:500 diluted Anti-HIS tag antibody-HRP in wash buffer. The HPR detection molecules were incubated in the wells at room temperature for one hour with shaking at 600 RPMs. Plate wells were washed with 100 ul of wash buffer, four times. Plates were detected using the chromogenic HRP substrate 3,3′,5,5;-tetramethylbenzidine (TMB). Samples were read using a spectrophotometer plate reader with OD set to 450 nm.

hu FcγRIII (CD16a) = target: T4, hu FcγRIII (CD16a) (Homo sapiens, UniProt P08637); assay: Fc gamma receptor binding ELISA
T4 construct: purchased R&D Systems 4325-FC-050
Method: as §1

hu FcγRIIb (CD32b) = target: T5, hu FcγRIIb (CD32b) (Homo sapiens, UniProt P31994); assay: Fc gamma receptor binding ELISA
T5 construct: Avi-tag; purchased R&D Systems AVI1875-050
T5 sequence (P31994 43-310): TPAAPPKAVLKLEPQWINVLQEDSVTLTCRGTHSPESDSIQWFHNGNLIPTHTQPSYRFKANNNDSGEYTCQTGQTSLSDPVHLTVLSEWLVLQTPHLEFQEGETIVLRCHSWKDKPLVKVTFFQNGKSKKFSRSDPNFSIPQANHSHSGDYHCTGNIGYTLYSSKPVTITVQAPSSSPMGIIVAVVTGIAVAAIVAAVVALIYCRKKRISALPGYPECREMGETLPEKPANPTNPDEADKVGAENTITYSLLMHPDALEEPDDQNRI
Method: as §1

mu FcγRI (CD64) = target: T6, mu FcγRI (CD64) (Mus musculus, UniProt P26151); assay: Fc gamma receptor binding ELISA
T6 construct: purchased R&D Systems 2074-FC-050
T6 sequence (P26151 25-404): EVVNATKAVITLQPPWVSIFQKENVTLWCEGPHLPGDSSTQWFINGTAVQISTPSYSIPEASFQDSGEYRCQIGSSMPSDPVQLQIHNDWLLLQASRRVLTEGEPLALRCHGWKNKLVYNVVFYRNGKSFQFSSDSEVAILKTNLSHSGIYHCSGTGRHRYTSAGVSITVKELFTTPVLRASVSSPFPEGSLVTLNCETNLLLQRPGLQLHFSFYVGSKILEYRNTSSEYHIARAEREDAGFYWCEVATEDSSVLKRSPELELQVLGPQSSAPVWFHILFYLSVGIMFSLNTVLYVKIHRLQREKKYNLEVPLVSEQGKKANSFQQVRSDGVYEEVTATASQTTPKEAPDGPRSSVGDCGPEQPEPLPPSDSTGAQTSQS
Method: as §1

mu FcγRIII (CD16) = target: T7, mu FcγRIII (CD16) (Mus musculus, UniProt P08508); assay: Fc gamma receptor binding ELISA
T7 construct: purchased R&D Systems 1960-FC-050
T7 sequence (P08508 31-261): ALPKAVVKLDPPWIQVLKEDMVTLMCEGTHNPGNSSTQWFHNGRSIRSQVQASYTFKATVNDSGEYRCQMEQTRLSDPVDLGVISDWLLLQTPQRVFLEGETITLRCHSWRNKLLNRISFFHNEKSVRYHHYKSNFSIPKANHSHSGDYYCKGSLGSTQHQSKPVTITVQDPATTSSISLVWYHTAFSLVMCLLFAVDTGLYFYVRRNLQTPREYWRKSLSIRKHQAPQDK
Method: as §1

mu FcγRIV (CD16-2) = target: T8, mu FcγRIV (CD16-2) (Mus musculus, UniProt A0A0B4J1G0); assay: Fc gamma receptor binding ELISA; conditions: mu FcγRIV (CD16-2) ELISA
T8 construct: purchased R&D Systems 1974-CD-050
T8 sequence (A0A0B4J1G0 21-249): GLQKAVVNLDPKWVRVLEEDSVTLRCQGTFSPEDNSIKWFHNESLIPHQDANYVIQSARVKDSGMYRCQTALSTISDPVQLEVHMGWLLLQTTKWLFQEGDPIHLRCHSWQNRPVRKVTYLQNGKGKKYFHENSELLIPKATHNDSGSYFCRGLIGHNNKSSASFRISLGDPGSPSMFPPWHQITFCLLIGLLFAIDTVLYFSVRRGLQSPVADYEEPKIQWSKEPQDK
Method: as §1

Raji cells = assay: Antibody-dependent cell-mediated cytotoxicity (ADCC) bioassay; assay type: cell-based, human; conditions: 25:1 PBMC:Raji, FIG. 6
Method: To determine the effectiveness of antiCD20 IL-2 immunoconjugates in activating immune cell function, an ADCC assay was employed. Human peripheral blood mononuclear cells (hPBMC) and target cells (Raji cells expressing HiBiT) were purchased from Promega as a kit (PBMC ADCC Bioassay Kit Raji, # CS3055A17). […] Once the cells recovered cells were counted. Raji cells were suspended at a concentration of 2×10^5 per ml, and PBMCs were suspended at 5×10^6 per ml. The killing assay was conducted in a 96 well U-bottom plate. Cells were seeded at a ratio of 25:1 Effector cell (PBMC):antiCD20 Target cell (Raji). Plates were incubated for 24 hours at 37 C in 5% CO2. Cell mixtures were treated with serial dilutions of immunocytokines to induce ADCC and placed back in the incubator for an additional 24 hours. Tissue culture supernatants from wells were assayed using Nano-Glo® HiBiT Extracellular assay detection kit.

B cells = assay: B cell depletion in hCD20 transgenic C57BL/6 mice; assay type: in vivo; conditions: 5 mg/kg single intraperitoneal injection on Day 0, FIG. 7A
Method: Animal Groupings and administration: 9 animals were randomly enrolled into three study groups based on the body weight 5 days before administration (day −5). Each group consists of 3 mice. Single doses were administered 5 day post grouping (Day 0).
Sample collection: 100 μL whole blood were collected with anticoagulant (DETA-2K) for flow cytometry. Collection time points: Day −5, Day 6, Day 9, Day 14, and Day 21.
Flow cytometry: Preparation of single cell suspensions: For the treatment of spleen samples, the spleen was transferred to a 35 mm culture dish, and then ground with a sterile syringe tail. The cells were washed and centrifuged at 500 g for 5 min at 4° C. The cell pellet was resuspended with 2 ml of red blood cell lysis buffer and incubated for 5-8 min at room temperature. A volume 10 mL of PBS was added to the cell suspension to stop the lysing, and centrifuged at 500 g for 5 min at 4° C. The cells were counted using a blood cell counting chamber. For the treatment of the blood samples, 100 μL of the blood sample was transferred into a 1.5 mL EP tube. To this, 1.4 mL of red blood cell lysis buffer is added, and mixed by inversion. The lysis is carried out for 5-8 min at room temperature. The lysed blood sample is centrifuge at 500 g for 5 min at 4° C. The resultant cell pellet is resuspended in PBS to the required volume for flow cytometry.
The flow cytometry protocol is as follows. […]

T4 sequence (P08637 17-254): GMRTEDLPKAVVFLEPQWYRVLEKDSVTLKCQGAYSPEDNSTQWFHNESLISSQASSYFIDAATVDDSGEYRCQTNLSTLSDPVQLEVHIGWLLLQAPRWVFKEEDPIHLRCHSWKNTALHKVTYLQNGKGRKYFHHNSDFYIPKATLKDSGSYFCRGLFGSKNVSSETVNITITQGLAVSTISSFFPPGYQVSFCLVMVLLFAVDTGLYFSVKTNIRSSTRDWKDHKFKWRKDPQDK
T3 sequence (P12314 16-374): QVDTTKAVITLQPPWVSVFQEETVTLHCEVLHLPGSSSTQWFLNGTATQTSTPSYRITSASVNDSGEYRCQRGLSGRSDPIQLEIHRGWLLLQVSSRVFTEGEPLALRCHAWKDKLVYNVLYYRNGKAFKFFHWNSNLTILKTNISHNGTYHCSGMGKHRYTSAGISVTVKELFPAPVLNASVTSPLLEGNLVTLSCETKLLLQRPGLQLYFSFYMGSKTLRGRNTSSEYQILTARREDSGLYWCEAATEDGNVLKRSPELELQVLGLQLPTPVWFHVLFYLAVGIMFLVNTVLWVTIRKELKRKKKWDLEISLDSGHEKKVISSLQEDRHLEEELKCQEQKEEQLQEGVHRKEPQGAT

- EC50 (hu CD20): 0.08 nM
- EC50 (Human FcRn): 4 nM
- EC50 (hu FcγRI (CD64)): 0.23 nM
- EC50 (hu FcγRIII (CD16a)): 185 nM
- EC50 (hu FcγRIIb (CD32b)): 880 nM
- EC50 (mu FcγRI (CD64)): 35 nM
- EC50 (mu FcγRIII (CD16)): 133 nM
- EC50 (mu FcγRIV (CD16-2)): 20 nM
Substance: Anti-CD20 Antibody: parent anti-CD20 antibody biosimilar Rituximab, unconjugated
- ADCC-targeted cell killing of Raji cells (Raji cells): Less cell killing overall
- depletion of B cells (B cells): substantial ability to deplete B cells

Reference: patent publication US20230201365A1, “MODIFIED CD20 ANTIBODIES AND USES THEREOF” (Bright Peak Therapeutics AG, priority 2021, published 2023)
